This note sets out measurements from US20100081575A1 (published 2010).

The target of this assay is T1, ovalbumin (UniProt P01012 2-386).
T1 sequence (looked up): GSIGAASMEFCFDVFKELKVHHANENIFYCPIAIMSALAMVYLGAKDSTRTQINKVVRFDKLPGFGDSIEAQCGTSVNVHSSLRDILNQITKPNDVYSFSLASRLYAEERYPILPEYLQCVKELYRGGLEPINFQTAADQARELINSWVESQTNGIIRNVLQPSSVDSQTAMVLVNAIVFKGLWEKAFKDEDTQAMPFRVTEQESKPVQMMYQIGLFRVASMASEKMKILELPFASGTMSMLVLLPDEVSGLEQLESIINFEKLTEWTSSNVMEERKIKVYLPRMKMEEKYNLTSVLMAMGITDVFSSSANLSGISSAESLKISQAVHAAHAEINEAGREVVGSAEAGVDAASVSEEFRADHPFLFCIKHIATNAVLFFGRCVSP
In words: phage ELISA, anti-HA or anti-M13 detection. On the technique in general: An ELISA detects its analyte on a solid surface through an enzyme-linked reagent.

B1: 2G12 domain exchanged Fab fragment displayed on phage, expressed from the 2G12 pCAL G13 vector (SEQ ID NO: 11) (Fab, not shown: small tags and cut ends; large carriers)
heavy 1: EVQLVESGGGLVKAGGSLILSCGVSNFRISAHTMNWVRRVPGGGLEWVASISTSSTYRDYADAVKGRFTVSRDDLEDFVYLQMHKMRVEDTAIYYCARKGSDRLSDNDPFDAWGPGTVVTVSPASTKGPSVFPLAPSSKSTSGGTAALGCLVKDYFPEPVTVSWNSGALTSGVHTFPAVLQSSGLYSLSSVVTVPSSSLGTQTYICNVNHKPSNTKVDKKVEPKSCLRYPYDVPDYA
heavy 2: EVQLVESGGGLVKAGGSLILSCGVSNFRISAHTMNWVRRVPGGGLEWVASISTSSTYRDYADAVKGRFTVSRDDLEDFVYLQMHKMRVEDTAIYYCARKGSDRLSDNDPFDAWGPGTVVTVSPASTKGPSVFPLAPSSKSTSGGTAALGCLVKDYFPEPVTVSWNSGALTSGVHTFPAVLQSSGLYSLSSVVTVPSSSLGTQTYICNVNHKPSNTKVDKKVEPKSCLRYPYDVPDYA
light: AGVVMTQSPSTLSASVGDTITITCRASQSIETWLAWYQQKPGKAPKLLIYKASTLKTGVPSRFSGSGSGTEFTLTISGLQFDDFATYHCQHYAGYSATFGQGTRVEIKRTVAAPSVFIFPPSDEQLKSGTASVVCLLNNFYPREAKVQWKVDNALQSGNSQESVTEQDSKDSTYSLSSTLTLSKADYEKHKVYACEVTHQGLSSPVTKSFNRGEC
notes: also called 2G12 Fab; 2G12 alone
In the case of B1, the binding result was “no binding”.

B2: 2G12 domain exchanged Fab fragment displayed on phage, expressed from the 2G12 pCAL A1 vector (SEQ ID NO: 217) (Fab)
heavy 1: EVQLVESGGGLVKAGGSLILSCGVSNFRISAHTMNWVRRVPGGGLEWVASISTSSTYRDYADAVKGRFTVSRDDLEDFVYLQMHKMRVEDTAIYYCARKGSDRLSDNDPFDAWGPGTVVTVSPASTKGPSVFPLAPSSKSTSGGTAALGCLVKDYFPEPVTVSWNSGALTSGVHTFPAVLQSSGLYSLSSVVTVPSSSLGTQTYICNVNHKPSNTKVDKKVEPKSCLR
heavy 2: EVQLVESGGGLVKAGGSLILSCGVSNFRISAHTMNWVRRVPGGGLEWVASISTSSTYRDYADAVKGRFTVSRDDLEDFVYLQMHKMRVEDTAIYYCARKGSDRLSDNDPFDAWGPGTVVTVSPASTKGPSVFPLAPSSKSTSGGTAALGCLVKDYFPEPVTVSWNSGALTSGVHTFPAVLQSSGLYSLSSVVTVPSSSLGTQTYICNVNHKPSNTKVDKKVEPKSCLR
light: AGVVMTQSPSTLSASVGDTITITCRASQSIETWLAWYQQKPGKAPKLLIYKASTLKTGVPSRFSGSGSGTEFTLTISGLQFDDFATYHCQHYAGYSATFGQGTRVEIKRTVAAPSVFIFPPSDEQLKSGTASVVCLLNNFYPREAKVQWKVDNALQSGNSQESVTEQDSKDSTYSLSSTLTLSKADYEKHKVYACEVTHQGLSSPVTKSFNRGEC
Turning to B2, the binding result is listed as “no binding”.
